Patent publication US20100172835A1 (BURNHAM INSTITUTE FOR MEDICAL RESEARCH, published 2010)
Bridges are numbered along the chain shown (N, C = ends). Where no end group is shown, it is not given here.

Key:
[1] = target: T1, purified gC1qR/p32 protein (human, UniProt Q07021 74-282); experiment: LyP-1 phage binding to wells coated with purified gC1qR/p32 with 20 µg/ml mAb; ligand blocked: LyP-1 phage
T1 construct: also called purified p32
T1 sequence (looked up): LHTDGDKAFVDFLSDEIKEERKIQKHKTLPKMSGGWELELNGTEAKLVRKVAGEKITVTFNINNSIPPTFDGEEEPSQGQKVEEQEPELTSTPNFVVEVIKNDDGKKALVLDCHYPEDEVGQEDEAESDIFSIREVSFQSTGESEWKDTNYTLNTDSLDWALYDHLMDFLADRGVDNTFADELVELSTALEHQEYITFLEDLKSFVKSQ

[2] = target: T2, gC1qR/p32 at the cell surface (human, UniProt Q07021 74-282); experiment: LyP-1 phage binding to Raji cells pre-incubated with 40 µg/ml mAb; ligand blocked: LyP-1 phage
T2 construct: whole, on cells; also called cell surface p32
T2 sequence (looked up): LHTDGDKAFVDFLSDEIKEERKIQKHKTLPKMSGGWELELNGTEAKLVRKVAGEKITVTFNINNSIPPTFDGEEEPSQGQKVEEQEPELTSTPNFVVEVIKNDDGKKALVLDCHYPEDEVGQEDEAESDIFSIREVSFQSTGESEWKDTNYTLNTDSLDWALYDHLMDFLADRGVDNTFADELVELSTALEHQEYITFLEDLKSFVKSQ

[3] = target: T2, gC1qR/p32 at the cell surface; experiment: FACS of FITC-peptide on MDA-MB-435 cells transfected with p32 siRNA or control siRNA
Protocol: (§1) 48 hours after transfection, inhibition of p32 expression was checked by immunoblot analysis and immunostaining (upper panels). β-actin was used as a control. […] Cells incubated in the absence of peptide served as negative control. […] A representative experiment out of three is shown. C. […] Insertless phage was used to determine background phage binding.
(§2) MDA-MB-435 cells were transiently transfected with gC1qR/p32-specific or control siRNAs. […] The amount of fluorescence in living cells was analyzed by FACS. Cells incubated in the absence of peptide served as FITC negative control.

[4] = target: T2, gC1qR/p32 at the cell surface; experiment: phage binding to C8161 cells transiently transfected with gC1qR/p32 cDNA
Protocol: as §1, with “A. C8161 cells were transiently transfected with pEGFP together with either empty pcDNA3.1 vector or p32 pcDNA3.1 vector. Transfected cells were sorted for EGFP expression and the sorted populations were used for phage binding assay and immunoblot analysis with anti-p32. […] 48” for “48”

[5] = target: T1, purified gC1qR/p32 protein; experiment: phage binding to wells coated with purified gC1qR/p32, plaque assay
[6] = target: T3, gC1qR/p32 from tumor cell extracts (human, UniProt Q07021 74-282); experiment: pull-down from MDA-MB-435 extracts, anti-gC1qR/p32 immunoblot
T3 construct: mature; From xenograft extracts an additional 75 kD band was also identified as gC1qR/p32; also called gC1q/p32 receptor; p32/p33/gC1qR/HABP1
T3 sequence (looked up): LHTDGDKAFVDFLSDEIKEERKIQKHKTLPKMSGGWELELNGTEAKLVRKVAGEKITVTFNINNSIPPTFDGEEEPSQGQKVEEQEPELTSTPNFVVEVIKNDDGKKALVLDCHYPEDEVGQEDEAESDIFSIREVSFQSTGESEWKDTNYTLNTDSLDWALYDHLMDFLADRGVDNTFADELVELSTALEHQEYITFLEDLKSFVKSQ

[7] = target: T4, neuropilin-1 by forced expression on M21 cells (Homo sapiens (Human), UniProt O14786 22-923); experiment: CRGDK phage binding to M21 cells transfected with neuropilin-1 cDNA, against untransfected or vector-only cells
T4 construct: also called NRP-1; M21 cells transfected with neuropilin-1 cDNA

[8] = target: T4, neuropilin-1 by forced expression on …; experiment: cell-based or functional assay
αv integrins = experiment: assay not described in the filing
[9] = target: T2, gC1qR/p32 at the cell surface; experiment: FACS of 10 µM FITC-LyP-1 on MDA-MB-435 S35 cells with p32 siRNA or control siRNA
Protocol: as §1, §2

T4 sequence (O14786 22-923 limits assumed, form in doubt): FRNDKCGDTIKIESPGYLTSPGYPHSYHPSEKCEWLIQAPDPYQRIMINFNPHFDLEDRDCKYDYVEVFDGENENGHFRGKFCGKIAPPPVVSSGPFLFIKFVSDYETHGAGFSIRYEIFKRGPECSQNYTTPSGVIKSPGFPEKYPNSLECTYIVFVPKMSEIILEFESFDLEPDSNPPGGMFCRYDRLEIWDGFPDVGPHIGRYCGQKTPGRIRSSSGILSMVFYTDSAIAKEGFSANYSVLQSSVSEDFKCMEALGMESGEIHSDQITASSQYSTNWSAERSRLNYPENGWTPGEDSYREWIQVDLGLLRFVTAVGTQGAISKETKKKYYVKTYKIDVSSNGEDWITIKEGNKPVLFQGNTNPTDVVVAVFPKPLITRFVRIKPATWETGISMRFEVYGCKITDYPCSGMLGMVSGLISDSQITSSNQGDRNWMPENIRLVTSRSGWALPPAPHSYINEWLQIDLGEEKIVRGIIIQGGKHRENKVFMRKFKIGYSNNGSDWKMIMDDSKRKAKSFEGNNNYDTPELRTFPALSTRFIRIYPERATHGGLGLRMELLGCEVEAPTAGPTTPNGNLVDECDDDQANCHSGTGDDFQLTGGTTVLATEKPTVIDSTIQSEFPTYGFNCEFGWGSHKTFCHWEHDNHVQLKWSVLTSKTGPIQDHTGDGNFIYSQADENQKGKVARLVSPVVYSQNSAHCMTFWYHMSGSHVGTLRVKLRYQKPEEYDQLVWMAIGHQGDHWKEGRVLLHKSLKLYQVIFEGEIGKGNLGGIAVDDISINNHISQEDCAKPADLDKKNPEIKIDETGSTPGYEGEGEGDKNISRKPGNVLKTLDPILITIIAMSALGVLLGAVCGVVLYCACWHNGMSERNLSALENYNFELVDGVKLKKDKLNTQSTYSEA

**Q.** What does the source list for “mouse monoclonal 60.11 anti-gC1qR/p32 antibody”?
**A.** reduction of LyP-1 phage binding [1]: 90%; reduction of LyP-1 binding [2]: 50%

**Q.** Does ARALPSQRSR (also: FITC conjugated, position not given here) [FITC conjugated control peptide ARALPSQRSR] bind [3]?
**A.** no binding (tested: 10 µM)

B1: LyP-1 phage (other, not shown: large carriers)
chain: CGNKRTRGC
modifications: cysteine pairing not given here; also: displayed on phage coat protein
notes: Phage displaying the LyP-1 peptide; also called Lyp-1 expressing phage
**Q.** With B1 as the molecule, how does the “fold binding over control phage” value [4] read?
**A.** 5 fold

**Q.** And the “fold binding over insertless control phage” value [5]?
**A.** 60 fold

B2: biotinylated CREKA peptide (peptide)
peptide: CREKA
modifications: also: biotinylated, position not given here
notes: Negative control in the pull-down; also called control peptide
**Q.** Does B2 bind [6]?
**A.** no binding

**Q.** What does the source list for CRGDK (other, also: displayed on T7 phage capsid protein, not shown: T7 phage capsid protein) [CRGDK phage]?
**A.** fold increase in binding upon forced expression of neuropilin-1 [7]: 3.5 fold; internalization of CRGDK phage into M21 cells [8]: 3.5 fold

**Q.** Which fold reduction in affinity (against iRGD) (αv integrins) does the source give for CRGDK [CRGDK fragment] here?
**A.** 50 to 150 fold

B3: FITC conjugated LyP-1 peptide (peptide)
peptide: CGNKRTRGC
modifications: disulfide 1-9 (inferred); also: FITC conjugated, position not given here
notes: Used at 10 uM on cells at 4 C; also called FITC-LyP-1
**Q.** Does B3 bind [9]?
**A.** binds

B4: biotinylated CRV peptide (peptide)
peptide: CRVRTRSGC
modifications: disulfide 1-9 (inferred); also: biotinylated, site not given here
notes: as for B2
**Q.** Does B4 bind [6]?
**A.** no binding
